# US20230159603A1 (XILIO DEVELOPMENT, published 2023)
# B1: rhIL-12RB2-Fc (Fc fusion, human, UniProt Q99665 24-622, looked up, not shown: a dimerising Fc or GST)
# chain: KIDACKRGDVTVKPSHVILLGSTVNITCSLKPRQGCFHYSRRNKLILYKFDRRINFHHGHSLNSQVTGLPLGTTLFVCKLACINSDEIQICGAEIFVGVAPEQPQNLSCIQKGEQGTVACTWERGRDTHLYTEYTLQLSGPKNLTWQKQCKDIYCDYLDFGINLTPESPESNFTAKVTAVNSLGSSSSLPSTFTFLDIVRPLPPWDIRIKFQKASVSRCTLYWRDEGLVLLNRLRYRPSNSRLWNMVNVTKAKGRHDLLDLKPFTEYEFQISSKLHLYKGSWSDWSESLRAQTPEEEPTGMLDVWYMKRHIDYSRQQISLFWKNLSVSEARGKILHYQVTLQELTGGKAMTQNITGHTSWTTVIPRTGNWAVAVSAANSKGSSLPTRINIMNLCEAGLLAPRQVSANSEGMDNILVTWQPPRKDPSAVQEYVVEWRELHPGGDTQVPLNWLRSRPYNVSALISENIKSYICYEIRVYALSGDQGGCSSILGNSKHKAPLSGPHINAITEEKGSILISWNSIPVQEQMGCLLHYRIYWKERDSNSQPQLCEIPYRVSQNSHPINSLQPRVTYVLWMTALTAAGESSHGNEREFCLQGKAN
# B2: recombinant human IL-12 (rhIL-12) control (ligand)
# chain 1: IWELKKDVYVVELDWYPDAPGEMVVLTCDTPEEDGITWTLDQSSEVLGSGKTLTIQVKEFGDAGQYTCHKGGEVLSHSLLLLHKKEDGIWSTDILKDQKEPKNKTFLRCEAKNYSGRFTCWWLTTISTDLTFSVKSSRGSSDPQGVTCGAATLSAERVRGDNKEYEYSVECQEDSACPAAEESLPIEVMVDAVHKLKYENYTSSFFIRDIIKPDPPKNLQLKPLKNSRQVEVSWEYPDTWSTPHSYFSLTFCVQVQGKSKREKKDRVFTDKTSATVICRKNASISVRAQDRYYSSSWSEWASVPCS
# chain 2: RNLPVATPDPGMFPCLHHSQNLLRAVSNMLQKARQTLEFYPCTSEEIDHEDITKDKTSTVEACLPLELTKNESCLNSRETSFITNGSCLASRKTSFMMALCLSSIYEDLKMYQVEFKTMNAKLLMDPKRQIFLDQNMLAVIDELMQALNFNSETVPQKSSLEEPDFYKTKIKLCILLHAFRIRAVTIDRVMSYLNAS
# notes: also called wild-type rhIL-12
# Key:
# AK384 = target: T1, AK384; assay: SPR, IL-12 receptor immobilised, IL-12 construct flowed, 25 C, FIGS. 35A-35D
# T1 construct: Masked IL-12 heterodimer, IL-12Rβ1 (24-237) mask; tested uncleaved
# Method: (§1) Sensor Chips were coated and immobilized with IL-12 receptors. Dilutions of IL-12 constructs were flowed over the chips with the immobilized IL-12 receptors to determine the on rate at 25 degrees C. At equilibrium (approximately 3-4 minutes), the flow buffer was changed to PBST, to determine the off rates over 6 minutes. Between each run the chip was regenerated. The tables represent the SPR data (FIGS. 34 and 35).
# rhIL-12RB2-Fc = target: B1; assay: SPR, IL-12 receptor immobilised, IL-12 flowed, 25 C, FIGS. 35A-35D
# Method: as §1
# rhIL-12RB1-Fc = rhIL-12RB1-Fc (human, UniProt P42701 24-545, limits assumed); assay: SPR, IL-12 receptor immobilised, IL-12 flowed, 25 C, FIGS. 34A-34D
# Method: as §1
binding result (AK384),binding result (rhIL-12RB2-Fc),binding result (rhIL-12RB1-Fc),Binder
binds,,,B1
,binds,binds,B2
